Values quoted from earlier work as cited in paper PMC4166557.

Target: MLL MBM1 4-15 (Homo sapiens) (UniProt Q03164)

## menin (from UniProt O00255)
  Kd: 56 nM
